Reference: US20200087347 (published 2020)
Side-chain parts run from the residue outwards. [ ]: non-standard residue; d: D form. NMeK = CN[C@@H](CCCCN)C(=O)O; BDPFL = dye

What was measured:
Assay in all cases: competition
integrin αvβ5 = target: T1, integrin αvβ5 (human, UniProt P06756)
T1 chain 1: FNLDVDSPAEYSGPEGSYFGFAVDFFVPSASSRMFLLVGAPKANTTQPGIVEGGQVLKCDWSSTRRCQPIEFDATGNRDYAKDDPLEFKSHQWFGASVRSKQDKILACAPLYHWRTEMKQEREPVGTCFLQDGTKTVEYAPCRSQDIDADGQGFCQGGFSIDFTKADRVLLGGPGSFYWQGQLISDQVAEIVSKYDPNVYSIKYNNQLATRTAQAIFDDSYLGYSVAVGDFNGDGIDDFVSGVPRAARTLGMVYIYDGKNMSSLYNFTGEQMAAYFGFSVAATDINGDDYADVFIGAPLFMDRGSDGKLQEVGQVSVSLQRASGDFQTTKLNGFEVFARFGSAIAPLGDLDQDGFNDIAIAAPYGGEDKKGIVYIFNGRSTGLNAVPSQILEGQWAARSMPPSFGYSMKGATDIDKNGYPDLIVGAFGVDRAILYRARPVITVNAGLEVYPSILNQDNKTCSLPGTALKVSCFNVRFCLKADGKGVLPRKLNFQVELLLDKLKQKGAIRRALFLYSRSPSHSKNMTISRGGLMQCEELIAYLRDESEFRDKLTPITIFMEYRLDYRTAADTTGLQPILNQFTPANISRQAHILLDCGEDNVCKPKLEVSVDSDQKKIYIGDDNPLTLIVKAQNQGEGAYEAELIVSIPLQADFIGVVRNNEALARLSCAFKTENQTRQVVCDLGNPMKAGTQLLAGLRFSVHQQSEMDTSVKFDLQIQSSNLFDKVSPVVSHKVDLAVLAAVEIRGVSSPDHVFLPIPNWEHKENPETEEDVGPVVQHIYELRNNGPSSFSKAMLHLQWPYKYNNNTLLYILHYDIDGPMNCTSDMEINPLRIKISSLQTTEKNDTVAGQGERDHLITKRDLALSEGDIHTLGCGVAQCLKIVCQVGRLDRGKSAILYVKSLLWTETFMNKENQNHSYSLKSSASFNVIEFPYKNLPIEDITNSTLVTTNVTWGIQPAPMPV
T1 chain 2: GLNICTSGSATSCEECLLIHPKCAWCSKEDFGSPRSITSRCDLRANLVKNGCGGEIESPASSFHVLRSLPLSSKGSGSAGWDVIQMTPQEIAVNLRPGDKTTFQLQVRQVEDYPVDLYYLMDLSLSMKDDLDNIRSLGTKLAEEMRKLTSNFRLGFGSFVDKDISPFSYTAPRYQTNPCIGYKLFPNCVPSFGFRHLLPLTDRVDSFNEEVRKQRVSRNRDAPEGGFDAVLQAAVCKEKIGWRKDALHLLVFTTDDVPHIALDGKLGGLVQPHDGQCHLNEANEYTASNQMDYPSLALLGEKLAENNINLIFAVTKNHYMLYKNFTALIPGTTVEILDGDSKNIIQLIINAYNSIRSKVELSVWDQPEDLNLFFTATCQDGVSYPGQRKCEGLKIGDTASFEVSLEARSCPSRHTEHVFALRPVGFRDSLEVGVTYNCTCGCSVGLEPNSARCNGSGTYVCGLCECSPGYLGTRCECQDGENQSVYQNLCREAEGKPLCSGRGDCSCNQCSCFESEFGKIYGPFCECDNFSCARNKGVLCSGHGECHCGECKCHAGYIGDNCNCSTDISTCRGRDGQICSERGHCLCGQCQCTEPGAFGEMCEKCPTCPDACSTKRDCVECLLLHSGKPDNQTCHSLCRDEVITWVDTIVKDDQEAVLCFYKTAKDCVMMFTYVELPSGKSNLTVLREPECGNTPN

integrin αvβ6 = target: T2, integrin αvβ6 (human, UniProt P06756)
T2 chain 1: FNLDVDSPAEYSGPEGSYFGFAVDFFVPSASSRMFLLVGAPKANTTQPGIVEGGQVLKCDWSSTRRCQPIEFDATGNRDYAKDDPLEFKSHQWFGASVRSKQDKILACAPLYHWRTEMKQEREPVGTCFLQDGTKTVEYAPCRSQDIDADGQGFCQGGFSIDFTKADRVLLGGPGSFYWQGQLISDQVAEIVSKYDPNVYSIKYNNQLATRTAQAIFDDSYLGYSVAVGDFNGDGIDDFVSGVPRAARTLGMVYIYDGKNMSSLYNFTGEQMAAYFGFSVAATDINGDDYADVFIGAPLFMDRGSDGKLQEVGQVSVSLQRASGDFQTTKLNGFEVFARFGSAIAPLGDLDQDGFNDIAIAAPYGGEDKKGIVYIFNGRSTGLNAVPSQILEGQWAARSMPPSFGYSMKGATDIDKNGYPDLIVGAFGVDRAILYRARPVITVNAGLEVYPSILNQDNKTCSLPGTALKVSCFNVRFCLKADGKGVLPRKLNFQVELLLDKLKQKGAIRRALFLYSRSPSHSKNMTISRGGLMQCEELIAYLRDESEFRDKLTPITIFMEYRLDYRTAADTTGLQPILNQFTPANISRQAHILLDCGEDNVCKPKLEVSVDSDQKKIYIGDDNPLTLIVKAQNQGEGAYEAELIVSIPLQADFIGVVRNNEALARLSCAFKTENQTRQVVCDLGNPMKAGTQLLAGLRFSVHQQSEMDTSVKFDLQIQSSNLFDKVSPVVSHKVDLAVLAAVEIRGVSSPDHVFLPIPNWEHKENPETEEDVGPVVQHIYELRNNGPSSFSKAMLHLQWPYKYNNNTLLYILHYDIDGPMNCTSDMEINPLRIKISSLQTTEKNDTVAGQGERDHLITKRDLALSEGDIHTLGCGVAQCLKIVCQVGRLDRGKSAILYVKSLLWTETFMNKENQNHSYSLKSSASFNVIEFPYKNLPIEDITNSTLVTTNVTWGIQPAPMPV
T2 chain 2: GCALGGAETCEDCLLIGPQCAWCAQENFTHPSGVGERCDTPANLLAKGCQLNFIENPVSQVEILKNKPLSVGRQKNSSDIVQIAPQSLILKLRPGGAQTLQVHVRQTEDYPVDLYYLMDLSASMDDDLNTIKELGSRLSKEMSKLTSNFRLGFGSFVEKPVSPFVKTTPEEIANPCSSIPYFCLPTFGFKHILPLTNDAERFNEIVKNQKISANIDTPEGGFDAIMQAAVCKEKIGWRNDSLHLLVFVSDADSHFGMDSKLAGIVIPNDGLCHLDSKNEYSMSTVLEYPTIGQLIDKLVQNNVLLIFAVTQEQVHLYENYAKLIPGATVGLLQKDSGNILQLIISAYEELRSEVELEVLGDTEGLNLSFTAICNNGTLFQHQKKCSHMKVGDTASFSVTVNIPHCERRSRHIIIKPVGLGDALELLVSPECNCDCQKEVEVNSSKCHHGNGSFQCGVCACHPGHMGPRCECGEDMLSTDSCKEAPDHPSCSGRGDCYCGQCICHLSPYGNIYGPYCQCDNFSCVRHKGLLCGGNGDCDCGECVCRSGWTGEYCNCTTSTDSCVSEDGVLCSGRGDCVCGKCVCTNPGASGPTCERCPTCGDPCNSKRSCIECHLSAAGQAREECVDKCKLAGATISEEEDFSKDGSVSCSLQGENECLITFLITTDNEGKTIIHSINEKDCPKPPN

integrin αvβ8 = target: T3, integrin αvβ8 (human, UniProt P06756)
T3 chain 1: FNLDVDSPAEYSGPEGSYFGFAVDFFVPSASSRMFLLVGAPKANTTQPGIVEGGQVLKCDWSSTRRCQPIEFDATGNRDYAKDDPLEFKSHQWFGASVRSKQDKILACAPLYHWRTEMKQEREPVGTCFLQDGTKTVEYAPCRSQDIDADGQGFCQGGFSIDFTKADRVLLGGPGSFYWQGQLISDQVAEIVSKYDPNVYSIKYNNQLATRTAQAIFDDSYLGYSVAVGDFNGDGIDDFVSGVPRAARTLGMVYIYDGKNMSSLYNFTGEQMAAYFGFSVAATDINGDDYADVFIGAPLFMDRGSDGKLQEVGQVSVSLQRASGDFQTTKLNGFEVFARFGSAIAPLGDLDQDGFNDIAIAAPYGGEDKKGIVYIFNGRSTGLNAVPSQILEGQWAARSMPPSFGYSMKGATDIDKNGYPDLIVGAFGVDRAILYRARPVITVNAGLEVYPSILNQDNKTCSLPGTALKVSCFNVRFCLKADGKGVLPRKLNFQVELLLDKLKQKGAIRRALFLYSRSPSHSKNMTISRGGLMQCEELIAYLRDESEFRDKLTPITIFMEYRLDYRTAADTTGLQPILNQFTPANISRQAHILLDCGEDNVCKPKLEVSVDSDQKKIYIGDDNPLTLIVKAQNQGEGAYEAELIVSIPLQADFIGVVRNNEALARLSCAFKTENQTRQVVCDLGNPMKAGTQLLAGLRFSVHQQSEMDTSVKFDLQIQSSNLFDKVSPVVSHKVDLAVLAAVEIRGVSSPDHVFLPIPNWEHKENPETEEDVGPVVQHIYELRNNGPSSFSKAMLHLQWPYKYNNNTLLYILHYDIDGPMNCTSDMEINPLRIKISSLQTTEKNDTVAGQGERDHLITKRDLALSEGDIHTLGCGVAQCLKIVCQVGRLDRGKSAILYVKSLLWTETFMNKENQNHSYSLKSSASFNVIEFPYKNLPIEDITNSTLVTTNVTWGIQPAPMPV
T3 chain 2: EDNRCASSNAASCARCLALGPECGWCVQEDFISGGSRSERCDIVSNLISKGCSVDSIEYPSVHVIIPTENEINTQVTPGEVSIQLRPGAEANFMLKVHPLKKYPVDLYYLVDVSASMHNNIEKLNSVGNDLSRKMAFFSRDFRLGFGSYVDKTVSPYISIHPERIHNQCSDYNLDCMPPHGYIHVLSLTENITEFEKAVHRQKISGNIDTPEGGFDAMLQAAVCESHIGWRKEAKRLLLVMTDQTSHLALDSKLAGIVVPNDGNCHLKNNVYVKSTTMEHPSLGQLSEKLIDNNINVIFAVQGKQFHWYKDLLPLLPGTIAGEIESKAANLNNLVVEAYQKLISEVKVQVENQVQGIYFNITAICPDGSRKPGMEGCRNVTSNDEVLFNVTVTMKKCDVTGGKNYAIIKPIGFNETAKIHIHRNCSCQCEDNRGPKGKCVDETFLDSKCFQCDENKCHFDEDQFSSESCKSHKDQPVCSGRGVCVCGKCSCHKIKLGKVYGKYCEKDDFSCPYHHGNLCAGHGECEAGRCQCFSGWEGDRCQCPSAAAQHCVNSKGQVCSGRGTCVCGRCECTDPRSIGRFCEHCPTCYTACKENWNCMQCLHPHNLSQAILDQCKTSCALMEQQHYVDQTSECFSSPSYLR

integrin αvβ3 = target: T4, integrin αvβ3 (human, UniProt P06756)
T4 chain 1: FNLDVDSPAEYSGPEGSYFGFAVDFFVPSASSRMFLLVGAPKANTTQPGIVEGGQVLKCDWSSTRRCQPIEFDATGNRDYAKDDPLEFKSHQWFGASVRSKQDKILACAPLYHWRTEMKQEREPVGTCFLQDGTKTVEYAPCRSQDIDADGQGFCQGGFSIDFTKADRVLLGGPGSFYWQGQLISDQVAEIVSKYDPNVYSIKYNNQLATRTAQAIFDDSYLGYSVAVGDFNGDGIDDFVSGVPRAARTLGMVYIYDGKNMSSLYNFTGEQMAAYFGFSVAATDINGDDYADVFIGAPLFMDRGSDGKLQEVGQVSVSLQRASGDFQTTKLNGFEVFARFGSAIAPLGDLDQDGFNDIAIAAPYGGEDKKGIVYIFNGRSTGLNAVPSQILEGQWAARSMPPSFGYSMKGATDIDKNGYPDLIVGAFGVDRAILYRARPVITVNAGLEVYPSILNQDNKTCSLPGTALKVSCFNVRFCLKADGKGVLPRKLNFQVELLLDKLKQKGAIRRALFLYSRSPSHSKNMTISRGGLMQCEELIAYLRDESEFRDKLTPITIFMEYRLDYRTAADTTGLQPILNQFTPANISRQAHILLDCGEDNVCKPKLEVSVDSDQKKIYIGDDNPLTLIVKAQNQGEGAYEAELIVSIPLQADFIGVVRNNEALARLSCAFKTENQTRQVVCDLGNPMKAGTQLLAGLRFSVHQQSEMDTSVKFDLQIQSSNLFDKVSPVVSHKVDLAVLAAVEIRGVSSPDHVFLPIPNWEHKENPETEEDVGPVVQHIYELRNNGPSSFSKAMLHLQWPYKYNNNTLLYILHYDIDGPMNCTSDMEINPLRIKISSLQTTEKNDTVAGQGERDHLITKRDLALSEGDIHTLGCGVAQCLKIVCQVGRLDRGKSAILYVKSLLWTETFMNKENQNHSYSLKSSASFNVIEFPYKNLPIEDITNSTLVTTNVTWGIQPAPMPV
T4 chain 2: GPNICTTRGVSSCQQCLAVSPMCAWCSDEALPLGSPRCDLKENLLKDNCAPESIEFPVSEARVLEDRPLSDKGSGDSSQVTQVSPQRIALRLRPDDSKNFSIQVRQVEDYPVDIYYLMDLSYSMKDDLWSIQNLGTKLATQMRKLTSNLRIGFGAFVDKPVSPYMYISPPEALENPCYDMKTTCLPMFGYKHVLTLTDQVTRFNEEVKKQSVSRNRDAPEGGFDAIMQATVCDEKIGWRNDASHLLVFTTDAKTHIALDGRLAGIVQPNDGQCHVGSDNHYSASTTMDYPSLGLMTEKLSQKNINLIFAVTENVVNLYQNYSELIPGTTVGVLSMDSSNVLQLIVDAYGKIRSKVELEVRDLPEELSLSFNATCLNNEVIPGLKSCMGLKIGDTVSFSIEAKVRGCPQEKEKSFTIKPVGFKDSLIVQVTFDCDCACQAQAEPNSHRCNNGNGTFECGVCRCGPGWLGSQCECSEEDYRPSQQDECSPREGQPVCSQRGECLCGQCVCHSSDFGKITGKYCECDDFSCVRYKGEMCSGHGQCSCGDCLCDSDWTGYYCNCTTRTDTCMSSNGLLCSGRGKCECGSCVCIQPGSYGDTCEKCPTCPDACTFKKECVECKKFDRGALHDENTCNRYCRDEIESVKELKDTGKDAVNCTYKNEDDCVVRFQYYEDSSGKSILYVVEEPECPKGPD

integrin α5β1 = integrin α5β1 (human, UniProt P08648)
integrin α5β1, sequence (P08648 42-1049, chain 1 of 2): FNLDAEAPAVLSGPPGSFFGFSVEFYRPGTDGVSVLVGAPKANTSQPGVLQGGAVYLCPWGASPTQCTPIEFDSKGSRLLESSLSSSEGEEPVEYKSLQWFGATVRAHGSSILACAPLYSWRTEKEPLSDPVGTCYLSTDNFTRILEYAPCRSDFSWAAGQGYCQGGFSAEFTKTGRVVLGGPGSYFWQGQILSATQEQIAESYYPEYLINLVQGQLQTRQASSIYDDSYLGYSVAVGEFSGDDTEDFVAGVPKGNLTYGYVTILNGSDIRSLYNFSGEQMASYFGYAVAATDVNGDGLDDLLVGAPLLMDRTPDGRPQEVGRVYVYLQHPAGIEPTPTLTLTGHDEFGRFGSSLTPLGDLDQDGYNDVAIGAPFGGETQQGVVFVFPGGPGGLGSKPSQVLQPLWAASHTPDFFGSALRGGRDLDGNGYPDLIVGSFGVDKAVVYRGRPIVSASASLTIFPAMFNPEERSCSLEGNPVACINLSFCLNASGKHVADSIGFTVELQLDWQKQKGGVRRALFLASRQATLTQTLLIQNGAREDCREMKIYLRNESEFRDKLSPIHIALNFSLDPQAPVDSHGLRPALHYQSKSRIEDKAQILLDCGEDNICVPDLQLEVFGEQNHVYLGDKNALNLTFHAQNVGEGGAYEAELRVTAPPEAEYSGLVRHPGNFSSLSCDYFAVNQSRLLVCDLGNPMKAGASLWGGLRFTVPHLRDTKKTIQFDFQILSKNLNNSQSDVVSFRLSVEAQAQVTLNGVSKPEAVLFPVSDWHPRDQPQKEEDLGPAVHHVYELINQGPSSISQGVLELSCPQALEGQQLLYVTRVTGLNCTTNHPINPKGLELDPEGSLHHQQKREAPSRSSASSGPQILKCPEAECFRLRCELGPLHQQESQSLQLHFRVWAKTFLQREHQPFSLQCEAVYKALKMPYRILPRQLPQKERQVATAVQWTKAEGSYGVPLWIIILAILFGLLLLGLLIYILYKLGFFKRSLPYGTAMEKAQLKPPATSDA
integrin α5β1, sequence (chain, as listed by the source, chain 2 of 2): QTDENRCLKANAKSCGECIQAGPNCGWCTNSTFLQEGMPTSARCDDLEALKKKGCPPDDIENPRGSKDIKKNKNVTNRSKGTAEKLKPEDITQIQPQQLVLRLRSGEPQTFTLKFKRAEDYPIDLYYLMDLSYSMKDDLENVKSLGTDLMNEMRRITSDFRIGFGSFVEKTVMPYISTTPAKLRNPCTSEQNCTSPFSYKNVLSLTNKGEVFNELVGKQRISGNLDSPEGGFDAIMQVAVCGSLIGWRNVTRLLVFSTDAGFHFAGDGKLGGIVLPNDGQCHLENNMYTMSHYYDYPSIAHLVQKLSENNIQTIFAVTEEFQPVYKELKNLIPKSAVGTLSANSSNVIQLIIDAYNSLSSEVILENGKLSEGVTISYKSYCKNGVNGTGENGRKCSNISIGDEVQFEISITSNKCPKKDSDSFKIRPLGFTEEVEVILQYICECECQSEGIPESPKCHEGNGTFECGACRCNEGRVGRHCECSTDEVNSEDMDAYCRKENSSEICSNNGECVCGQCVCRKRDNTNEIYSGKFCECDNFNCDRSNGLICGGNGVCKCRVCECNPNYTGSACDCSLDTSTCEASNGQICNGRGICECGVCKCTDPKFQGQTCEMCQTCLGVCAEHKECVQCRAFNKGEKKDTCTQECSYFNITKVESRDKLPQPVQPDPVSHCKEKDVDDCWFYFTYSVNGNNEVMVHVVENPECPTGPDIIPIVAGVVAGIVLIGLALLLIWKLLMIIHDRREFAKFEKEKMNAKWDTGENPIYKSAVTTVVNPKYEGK

Binder	IC50 (integrin αvβ5) [nM]	IC50 (integrin αvβ6) [nM]	IC50 (integrin αvβ8) [nM]	IC50 (integrin αvβ3) [nM]	IC50 (integrin α5β1) [nM]
cyclo(RGDL[dP][NMeK]([Gly-Pro-Pro-Pro-Pro-Pro-Pro-Gly-BDPFL])GL) [Compound 9f (9-G(P)6G-BDPFL)]	> 10000	453	7.98	42	782
cyclo(RGDL[dP][NMeK](BDPFL)GL) [Compound 9a (9-BDPFL)]	> 10000	94	0.66	676	1470
